In US20120039802A1 (published 2012):
Ends that are not written are not given here.

Tests used:
[1] = target: T1, human cMet expressed on 3T3 cells (human, UniProt P08581 25-1390); assay: whole cell phage ELISA, 3T3 human cMet vs 3T3
T1 construct: whole, on cells; cells fixed with glutaraldehyde; also called cell surface-expressed human cMet; 3T3 cells that over-express human cMet
Method: Whole cell ELISAs were performed using 3T3 cells that over-express human cMet. […] Briefly, 96-well plates were seeded with 10⁵ cells per well. The plates were centrifuged for 5 minutes at 1600 rpm to pellet the cells. The resulting cell layer was fixed with 0.1% (v/v) glutaraldehyde for 12 minutes at 37 C. […] Peptide-displaying phage also were blocked in the above solution for 1 hour at 37 C. 100 μL of blocked phage was then added to each well and the plates were incubated for 1 hour at room temperature. The plates were washed with PBST. cMet-binding peptide-displaying phage were detected using an HRP-conjugated anti-M13 antibody.

[2] = target: T2, cMet-Fc fusion protein (extracellular domain of the cMet receptor expressed as an Fc-fusion protein) (human, UniProt P08581 25-932); assay: phage ELISA, cMet-Fc vs TRAIL-Fc
T2 construct: extracellular domain; also called soluble cMet-Fc-fusion protein; soluble cMet receptor; not shown: Fc part
T2 sequence (P08581 25-932): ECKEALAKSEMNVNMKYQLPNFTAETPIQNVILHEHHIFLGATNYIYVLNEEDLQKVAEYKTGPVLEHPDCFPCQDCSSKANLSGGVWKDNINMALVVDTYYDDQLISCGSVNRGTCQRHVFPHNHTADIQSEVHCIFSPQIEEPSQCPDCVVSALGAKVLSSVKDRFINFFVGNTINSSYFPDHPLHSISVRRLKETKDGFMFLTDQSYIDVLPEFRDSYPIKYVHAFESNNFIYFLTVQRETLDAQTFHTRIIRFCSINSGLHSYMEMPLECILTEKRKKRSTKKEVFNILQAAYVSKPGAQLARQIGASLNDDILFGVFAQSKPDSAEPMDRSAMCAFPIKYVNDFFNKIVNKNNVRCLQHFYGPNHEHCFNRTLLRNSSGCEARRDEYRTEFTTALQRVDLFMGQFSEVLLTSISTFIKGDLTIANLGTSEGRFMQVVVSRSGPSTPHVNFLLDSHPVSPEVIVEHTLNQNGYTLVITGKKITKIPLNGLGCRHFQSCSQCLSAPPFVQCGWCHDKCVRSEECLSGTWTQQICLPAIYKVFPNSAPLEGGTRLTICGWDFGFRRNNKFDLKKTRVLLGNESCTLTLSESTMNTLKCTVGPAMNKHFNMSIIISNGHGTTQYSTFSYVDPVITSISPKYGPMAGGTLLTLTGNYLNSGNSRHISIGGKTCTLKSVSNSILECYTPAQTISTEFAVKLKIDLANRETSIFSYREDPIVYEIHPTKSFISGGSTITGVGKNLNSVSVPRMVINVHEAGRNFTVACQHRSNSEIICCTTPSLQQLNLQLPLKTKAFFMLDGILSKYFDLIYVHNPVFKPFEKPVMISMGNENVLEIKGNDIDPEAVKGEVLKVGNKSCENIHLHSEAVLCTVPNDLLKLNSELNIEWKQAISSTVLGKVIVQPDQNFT
Method: Protein phage ELISAs using peptide-displaying phage isolates from the various selection campaigns were performed to determine specificity of the peptides for cMet versus an unrelated Fc-fusion protein (TRAIL-Fe). Briefly, 384-well plates were coated overnight at 4 C with 0.5 μg/mL of cMet-Fc fusion protein or TRAIL-Fc fusion protein (background). The plates were blocked for 2 hours 37 C with 3% (w/v) BSA in PBS containing 0.05% (v/v) Tween-20 (PBST). The plates were washed with PBST and 100 μL of peptide-displaying phage were added to each well. The plates were incubated for 2 hours at room temperature and washed with PBST. cMet-binding peptide-displaying phage were detected using an HRP-conjugated anti-M13 antibody.

[3] = target: T2, cMet-Fc fusion protein (extracellular …); assay: phage ELISA on cMet-Fc, competitor HGF 500 ng/mL
Method: (§1) These assays were conducted using the peptide-displaying phage discovered from the initial selection and screening campaigns using the first generation peptide libraries. Briefly, 96-well plates were coated overnight at 4 C with 0.5 μg/mL of cMet-Fc fusion protein or TRAIL-Fc fusion protein (background). The plates were blocked for 2 hours at 37 C with 3% BSA in PBST. […] This was followed by an addition of 30 μL of peptide-displaying phage overnight culture to each well. The plates were incubated for 2 hours at room temperature, washed with PBST and cMet-binding peptide-displaying phage was detected using an HRP-conjugated anti-M13 antibody.

[4] = target: T2, cMet-Fc fusion protein (extracellular …); assay: phage ELISA on cMet-Fc, competitor HGF 100 ng/mL
Method: as §1

T1 sequence (P08581 25-1390): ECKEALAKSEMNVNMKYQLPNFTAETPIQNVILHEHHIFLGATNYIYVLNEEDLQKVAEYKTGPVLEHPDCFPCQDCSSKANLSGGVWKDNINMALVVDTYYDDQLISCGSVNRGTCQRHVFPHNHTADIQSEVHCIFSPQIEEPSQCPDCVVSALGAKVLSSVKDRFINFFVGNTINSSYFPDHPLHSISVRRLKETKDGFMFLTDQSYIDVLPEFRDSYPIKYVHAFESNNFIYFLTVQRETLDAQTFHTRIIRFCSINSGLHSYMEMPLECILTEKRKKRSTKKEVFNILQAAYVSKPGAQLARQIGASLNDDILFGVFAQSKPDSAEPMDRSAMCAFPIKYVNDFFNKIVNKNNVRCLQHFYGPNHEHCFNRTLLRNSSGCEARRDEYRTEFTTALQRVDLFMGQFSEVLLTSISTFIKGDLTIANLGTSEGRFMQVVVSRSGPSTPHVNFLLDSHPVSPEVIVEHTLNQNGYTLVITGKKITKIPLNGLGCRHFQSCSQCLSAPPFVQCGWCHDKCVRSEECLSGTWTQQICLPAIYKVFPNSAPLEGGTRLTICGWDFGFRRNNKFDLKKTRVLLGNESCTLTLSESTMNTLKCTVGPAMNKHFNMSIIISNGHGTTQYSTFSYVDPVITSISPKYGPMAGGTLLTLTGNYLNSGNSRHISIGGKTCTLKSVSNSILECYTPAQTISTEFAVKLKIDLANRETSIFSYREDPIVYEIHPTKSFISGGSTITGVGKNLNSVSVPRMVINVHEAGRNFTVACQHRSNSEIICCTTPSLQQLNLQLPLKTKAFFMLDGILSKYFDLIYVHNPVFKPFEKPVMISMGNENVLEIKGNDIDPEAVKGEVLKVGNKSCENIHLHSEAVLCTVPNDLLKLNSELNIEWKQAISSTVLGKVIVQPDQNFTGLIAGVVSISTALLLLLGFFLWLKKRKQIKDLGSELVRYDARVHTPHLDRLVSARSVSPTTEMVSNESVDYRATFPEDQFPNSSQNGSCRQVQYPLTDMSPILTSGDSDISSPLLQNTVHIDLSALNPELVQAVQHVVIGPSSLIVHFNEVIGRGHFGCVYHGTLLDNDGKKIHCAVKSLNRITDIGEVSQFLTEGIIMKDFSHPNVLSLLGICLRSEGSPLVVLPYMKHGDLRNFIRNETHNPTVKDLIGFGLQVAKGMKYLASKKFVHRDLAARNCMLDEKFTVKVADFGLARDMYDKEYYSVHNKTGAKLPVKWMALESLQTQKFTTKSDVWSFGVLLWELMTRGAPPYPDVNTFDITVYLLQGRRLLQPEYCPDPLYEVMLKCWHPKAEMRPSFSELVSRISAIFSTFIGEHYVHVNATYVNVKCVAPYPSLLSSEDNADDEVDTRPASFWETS

## AGNWICTGPPSFGCWYHGT [331-G06 peptide-displaying phage (SEQ ID NO: 078)]
[1]
  WC ELISA (fold over background): 1.4 fold
[2]
  Protein ELISA (fold over background): 4.7 fold
[3]
  % of binding in the absence of HGF: 51%
[4]
  % of binding in the absence of HGF: 59%

## AGYWSCAGPPMFMCTWQGT [552-G03 peptide-displaying phage (SEQ ID NO: 079)]
[1]
  WC ELISA (fold over background): 1.27 fold
[2]
  Protein ELISA (fold over background): 10.7 fold
[3]
  % of binding in the absence of HGF: 83%
[4]
  % of binding in the absence of HGF: 101%

## AGYWDCKGPPHFFCEWHGT [552-G11 peptide-displaying phage (SEQ ID NO: 080)]
[1]
  WC ELISA (fold over background): 1.23 fold
[2]
  Protein ELISA (fold over background): 7.4 fold
[3]
  % of binding in the absence of HGF: 41%
[4]
  % of binding in the absence of HGF: 55%

## AGYFHCSGSPWFQCDYYGT [550-G08 peptide-displaying phage (SEQ ID NO: 081)]
[1]
  WC ELISA (fold over background): 1.4 fold
[2]
  Protein ELISA (fold over background): 9.1 fold
[3]
  % of binding in the absence of HGF: 58%
[4]
  % of binding in the absence of HGF: 79%

## AGWSDCLGPPQFTCVHWGT [552-A01 peptide-displaying phage (SEQ ID NO: 083)]
[1]
  WC ELISA (fold over background): 1.33 fold
[2]
  Protein ELISA (fold over background): 3.9 fold
[3]
  % of binding in the absence of HGF: 81%
[4]
  % of binding in the absence of HGF: 76%

## AGTMYCLGPPTFICQQYGT [548-C06 peptide-displaying phage (SEQ ID NO: 084)]
[1]
  WC ELISA (fold over background): 1.23 fold
[2]
  Protein ELISA (fold over background): 13 fold
[3]
  % of binding in the absence of HGF: 77%
[4]
  % of binding in the absence of HGF: 94%

## AGSYWCSGPPTFMCRYEGT [545-B12 peptide-displaying phage (SEQ ID NO: 085)]
[1]
  WC ELISA (fold over background): 1.27 fold
[2]
  Protein ELISA (fold over background): 17.1 fold
[3]
  % of binding in the absence of HGF: 42%
[4]
  % of binding in the absence of HGF: 51%

## GSLIICWWSWCDKQAP [567-C08 peptide-displaying phage (SEQ ID NO: 009)]
[1]
  WC ELISA (fold over background): 1.27 fold
[2]
  Protein ELISA (fold over background): 3.8 fold
[3]
  % of binding in the absence of HGF: 94%
[4]
  % of binding in the absence of HGF: 85%

## AGSTDCRGHPTFECWGWGT [549-F06 peptide-displaying phage (SEQ ID NO: 086)]
[1]
  WC ELISA (fold over background): 1.3 fold
[2]
  Protein ELISA (fold over background): 5.2 fold
[3]
  % of binding in the absence of HGF: 40%
[4]
  % of binding in the absence of HGF: 96%

## AGSSPCKGWPTFECYFYGT [552-F01 peptide-displaying phage (SEQ ID NO: 087)]
[1]
  WC ELISA (fold over background): 1.3 fold
[2]
  Protein ELISA (fold over background): 4.8 fold
[3]
  % of binding in the absence of HGF: 37%
[4]
  % of binding in the absence of HGF: 56%

## AGSIACTGWPYFSCIDLGT [547-H12 peptide-displaying phage (SEQ ID NO: 088)]
[1]
  WC ELISA (fold over background): 1.1 fold
[2]
  Protein ELISA (fold over background): 5.6 fold
[3]
  % of binding in the absence of HGF: 81%
[4]
  % of binding in the absence of HGF: 92%

## AGQFYCSGPPTFQCIMIGT (not fully specified (bridges); cysteine pairing not given here) [550-F11 peptide-displaying phage (SEQ ID NO: 089)]
[1]
  WC ELISA (fold over background): 1.23 fold
[2]
  Protein ELISA (fold over background): 12.4 fold
[3]
  % of binding in the absence of HGF: 23%
[4]
  % of binding in the absence of HGF: 58%

## AGPWKCTGPPTFSCIQFGT [548-D08 peptide-displaying phage (SEQ ID NO: 090)]
[1]
  WC ELISA (fold over background): 1.23 fold
[2]
  Protein ELISA (fold over background): 19.5 fold
[3]
  % of binding in the absence of HGF: 62%
[4]
  % of binding in the absence of HGF: 97%

## AGNYWCSGPPSFICHAVGT [549-D02 peptide-displaying phage (SEQ ID NO: 091)]
[1]
  WC ELISA (fold over background): 1.27 fold
[2]
  Protein ELISA (fold over background): 8.9 fold
[3]
  % of binding in the absence of HGF: 36%
[4]
  % of binding in the absence of HGF: 47%

## AGMTLCAGPPTFECYEVGT [552-F02 peptide-displaying phage (SEQ ID NO: 092)]
[1]
  WC ELISA (fold over background): 1.23 fold
[2]
  Protein ELISA (fold over background): 12.3 fold
[3]
  % of binding in the absence of HGF: 40%
[4]
  % of binding in the absence of HGF: 60%

## AGETKCSGPPYFYCWMEGT [545-E04 peptide-displaying phage (SEQ ID NO: 093)]
[1]
  WC ELISA (fold over background): 1.23 fold
[2]
  Protein ELISA (fold over background): 16.3 fold
[3]
  % of binding in the absence of HGF: 17%
[4]
  % of binding in the absence of HGF: 48%

## AGETFCVGNPSFECWSWGT [545-E05 peptide-displaying phage (SEQ ID NO: 094)]
[1]
  WC ELISA (fold over background): 1.27 fold
[2]
  Protein ELISA (fold over background): 10.3 fold
[3]
  % of binding in the absence of HGF: 32%
[4]
  % of binding in the absence of HGF: 70%

## AGETFCSGWPTFECMQWGT [547-H03 peptide-displaying phage (SEQ ID NO: 095)]
[1]
  WC ELISA (fold over background): 1.23 fold
[2]
  Protein ELISA (fold over background): 16.2 fold
[3]
  % of binding in the absence of HGF: 53%
[4]
  % of binding in the absence of HGF: 109%

## GSFNICPYQWCTLWAP [561-C08 peptide-displaying phage (SEQ ID NO: 010)]
[1]
  WC ELISA (fold over background): 1.37 fold
[2]
  Protein ELISA (fold over background): 3 fold
[3]
  % of binding in the absence of HGF: 96%
[4]
  % of binding in the absence of HGF: 92%

## AGEIFCVGPPTFTCMWTGT [552-G09 peptide-displaying phage (SEQ ID NO: 096)]
[1]
  WC ELISA (fold over background): 1.27 fold
[2]
  Protein ELISA (fold over background): 9.7 fold
[3]
  % of binding in the absence of HGF: 68%
[4]
  % of binding in the absence of HGF: 98%

## AGDFICQGPPSFVCTNIGT [550-A08 peptide-displaying phage (SEQ ID NO: 097)]
[1]
  WC ELISA (fold over background): 1.27 fold
[2]
  Protein ELISA (fold over background): 8.4 fold
[3]
  % of binding in the absence of HGF: 51%
[4]
  % of binding in the absence of HGF: 52%

## AGAFFCSGPPTFMCSLYGT [550-G07 peptide-displaying phage (SEQ ID NO: 098)]
[1]
  WC ELISA (fold over background): 1.27 fold
[2]
  Protein ELISA (fold over background): 6.2 fold
[3]
  % of binding in the absence of HGF: 36%
[4]
  % of binding in the absence of HGF: 63%

## AGWGWCSGPPMFMCTEYGT [551-A05 peptide-displaying phage (SEQ ID NO: 099)]
[1]
  WC ELISA (fold over background): 1.3 fold
[2]
  Protein ELISA (fold over background): 4 fold
[3]
  % of binding in the absence of HGF: 42%
[4]
  % of binding in the absence of HGF: 68%

## GSEFECTGWPEFRCYEYAP [548-C10 peptide-displaying phage (SEQ ID NO: 100)]
[1]
  WC ELISA (fold over background): 1.2 fold
[2]
  Protein ELISA (fold over background): 8.4 fold
[3]
  % of binding in the absence of HGF: 57%
[4]
  % of binding in the absence of HGF: 69%

## GSILYCINRNDPQCPYTAP [465-C10 peptide-displaying phage (SEQ ID NO: 101)]
[1]
  WC ELISA (fold over background): 1.27 fold
[2]
  Protein ELISA (fold over background): 3 fold
[3]
  % of binding in the absence of HGF: 71%
[4]
  % of binding in the absence of HGF: 95%

## GSFAPCGWPSFAIDCIAEAP [545-C11 peptide-displaying phage (SEQ ID NO: 367)]
[1]
  WC ELISA (fold over background): 1.3 fold
[2]
  Protein ELISA (fold over background): 7.7 fold
[3]
  % of binding in the absence of HGF: 50%
[4]
  % of binding in the absence of HGF: 77%

## GSTKVCHEKWNQLFCHNQAP [549-G01 peptide-displaying phage (SEQ ID NO: 368)]
[1]
  WC ELISA (fold over background): 1.27 fold
[2]
  Protein ELISA (fold over background): 7 fold
[3]
  % of binding in the absence of HGF: 18%
[4]
  % of binding in the absence of HGF: 62%

## AGGFACGPPWDICWMFGT [573-F04 peptide-displaying phage (SEQ ID NO: 011)]
[1]
  WC ELISA (fold over background): 1.3 fold
[2]
  Protein ELISA (fold over background): 5.6 fold
[3]
  % of binding in the absence of HGF: 71%
[4]
  % of binding in the absence of HGF: 76%

## GSFFPCWRIDRFGYCHANAP [551-H10 peptide-displaying phage (SEQ ID NO: 370)]
[1]
  WC ELISA (fold over background): 1.87 fold
[2]
  Protein ELISA (fold over background): 13.3 fold
[3]
  % of binding in the absence of HGF: 49%
[4]
  % of binding in the absence of HGF: 88%

## GSQQICDRKEYRFQACLSDAP [443-H10 peptide-displaying phage (SEQ ID NO: 371)]
[1]
  WC ELISA (fold over background): 1.4 fold
[2]
  Protein ELISA (fold over background): 3.4 fold
[3]
  % of binding in the absence of HGF: 143%
[4]
  % of binding in the absence of HGF: 124%
